Laboratory results from publication PMC5507626 (Structure (London, England : 1993), 2017).
Residue numbers refer to the chain shown, from its start. Names and notes keep the numbering of the source.

B1: TPR(2-142) F113M (domain or fragment, human, UniProt P12270 2-142, looked up)
chain: AAVLQQVLERTELNKLPKSVQNKLEKFLADQQSEIDGLKGRHEKFKVESEQQYFEIEKRLSHSQERLVNETRECQSLRLELEKLNNQLKALTEKNKELEIAQDRNIAIQSQMTRTKEELEAEKRDLIRTNERLSQELEYLT
modifications: selenomethionine (SeMet construct)
B2: TPR(2-142) F55M/F113M (domain or fragment, human, UniProt P12270 2-142, looked up)
chain: B1 chain with F54M
modifications: selenomethionine (SeMet construct)

Legend:
crystal structure = molecular target: the molecule itself; test: crystal structure
SEC = molecular target: the molecule itself; test: SEC

Row | Protein | stoichiometry N (crystal structure) | stoichiometry N (SEC)
1 | B1 | 4 | 
2 | B2 | 2 | 4
